Measurements from the MegaScale stability set (Tsuboyama et al. 2023).

B1: 1ZHC (parent)
chain: HEFRDEISVLKANNPHFDKIFEKHNQLDDDIKTAEQQNASDAEVSHMKKQKLKLKDEIHSMIIEYREK

Variants of: B1
Test: folding stability dG (cDNA display proteolysis); higher = more stable
Details: PBS, room temperature

Folding stability dG [kcal/mol], by site and new letter:
K49: R 1.03; S 0.881; W 0.556; T 0.971; Y 1.2; M 1.19; I 1.18; Q 1.27; H 0.527; F 0.439; G 0.492; C 1.11; D 0.75; A 1.29; V 0.867; L 0.949; N 0.588; E 0.919
I62: H -0.624; F 0.011; W -0.3; L 0.874; C -0.713; V 0.282; M 0.117
E43: H 0.621; F 1.07; A 0.759; M 1.12; G -0.301; S 0.44; V 1.22; K 1.24; W 1.26; Q 0.669; L 1.14; C 1.01; N 0.299; D 1.26; I 1.27; T 0.763; Y 1.2; R 1.08
M47: L 1.59; C -0.078; A -0.981; V -0.869; W 0.576; I -0.393; Y -0.412
M61: A -0.996; C -0.322; I 0.447; H 0.422; W -0.462; L 0.762; F 0.209; Y 0.306
K53: L 1.16; Y 0.301; C 0.879; Q 0.53; V 0.811; F 0.261; E 0.543; W 0.603; R 0.995; H 0.266; I 0.711; S 0.351; A 1.12; D -0.039; T 0.66; N -0.015; M 1.05; P -0.251
H59: F 1.43; R 1.04; V 1.3; Y 1.61; N 0.996; T 1.06; L 2.03; K 0.399; I 1.83; A 0.525; M 1.92; W 1.83; D 1.11; E 1.21; S 0.624; Q 0.83
K55: S 1.14; N 0.726; G 0.766; F 1.65; V 0.758; H 1.27; D 0.359; A 1.67; Q 1.28; E 0.926; C 2.15; Y 1.47; R 1.51; L 1.45; I 1.09; M 1.72; T 0.273; W 2.94
S45: C 1.15; G 0.349; Y 0.766; I 0.788; V 0.431; A 1.09; F 0.625; M 1.01; L 0.524; D 0.937; E 1.07; N 1.05; W 0.834; T 1.34; R 0.873; H 0.845; K 0.976
D41: H 0.871; M 0.722; A 1.23; I 0.951; L 0.874; K 0.873; Q 0.972; Y 0.879; P 1.28; N 0.532; G 0.41; E 1.33; T 0.736; W 0.916; R 0.76; F 0.919; V 0.775; C 0.771; S 1.03
S40: W -0.874; Y -0.236
I63: E 0.513; D -0.032; F 0.401; A 0.8; C 1.17; K 0.899; H 0.728; G -0.621
K51: L 2.36; I 1.3; A 0.915; S 0.403; R 1.29; C 0.855; N -0.683; G -0.631; H 0.299; Q 0.766; M 1.52; W 1.57; V 0.721; F 1.65; E -0.779; Y 1.5
L52: A 1.08; D 1.02; Y 0.359; C 0.71; N 0.952; K 0.948; W 0.394; G -0.063; E 1.17; T 0.288; S 0.812; H 0.494; F 0.588; M 1.28; Q 1.28; I 0.913; V 0.329
S60: R 1.65; D 0.536; F 0.717; Y 0.561; V 0.267; I 0.697; Q 1.2; T 0.912; L 0.991; H 0.79; W 0.696; K 1.51; A 1.48; G 0.362; E 0.466; M 1.29; N 0.933; C 1.18
Q50: H 0.479; C 1.12; R 0.642; N -0.038; W 0.792; V 0.067; E 0.976; M 1; S -0.299; A 0.475; I 0.757; L 1.55; F 0.915; K 0.22; G -0.255; Y 0.509; T 0.433
A42: P 0.446; R -0.079; Y 0.635; V 0.662; H 0.433; L 0.464; E 1.26; C 0.68; F 0.065; I 0.572; T 0.44; D 0.989; K 0.633; S 0.359; N 0.432; W 0.189; G 0.074; M 0.539; Q 0.718
L54: Y 0.165; W -0.913; M -0.648; C -0.495; I -0.626
V44: Y -0.518; C -0.468; R -0.295; G 0.622; M 0.497; T -0.308; K -0.664; I 1.57; L 1.37; S -0.907
D56: R 1.21; S 0.621; T 0.838; E 1.29; K 1.22; L 1.61; G 0.971; H 1.07; C 1.36; I 1.25; V 1.02; N 1.07; W 1.39; M 1.57; Y 1.5; F 1.18; Q 1.51; A 1.27
K48: F 0.266; N -0.844; R 0.398; V 0.419; W 0.118; L 0.4; A 0.086; S -0.947; C 0.421; Q 0.238; E -0.818; Y 0.617; I 0.568; T 0.032; M 0.757
E57: A 0.703; Y 0.52; M 1.16; W 0.602; Q 0.719; C 0.959; T 0.674; S -0.103; L 0.992; I 0.87; F -0.51; R -0.034; K 0.212; D -0.8; H -0.994; V 0.286
H46: Q 1.17; N 1.14; P -0.278; L 1.36; T 0.889; C 1.09; A 1.5; E 1.47; F 1.02; Y 1.19; V 0.657; G 0.785; R 1.97; I 1.23; W 1.29; M 1.1; D 0.734; S 1.28; K 1.46
I58: H -0.628; C 0.015; R -0.534; W -0.545; M 0.19; V -0.599; L 0.496; F 0.304
